The target of assay [1] is GAPDH present on the surface of N. glabratus cells (N. glabratus (endogenous in CBS138 / ATCC 2001)). The experiment in a line: SEC; Superdex 200 HR 10/50, calibrated with molecular mass standards, 0.5 mL/min; buffer 20 mM Tris-HCl pH 6.7 (methods) or 50 mM NaH2PO4, 150 mM NaCl pH 7.0. Background: SEC sorts molecules by how far they enter the pores of the column.
Assay [2] concerns the target epithelial adhesin 6 of N. glabratus (N. glabratus (endogenous)) (UniProt Q6FX55). Kind of assay: BLI; Octet N1; Epa6 immobilised on an AR2G biosensor; NgGAPDH 100–1000 nM; Langmuir 1:1 model.
Assay [3] has as its target cytoplasmic Nakaseomyces glabratus glyceraldehyde 3-phosphate dehydrogenase (N. glabratus (endogenous in CBS138 / ATCC 2001)). Kind of assay: SEC; Superdex 200 HR 10/50, calibrated with molecular mass standards, 0.5 mL/min; buffer 20 mM Tris-HCl pH 6.7 (methods) or 50 mM NaH2PO4, 150 mM NaCl pH 7.0.
For assay [4], the target named is vitronectin (Homo sapiens) (UniProt P04004). Particulars: cited from earlier work.
Sequence of vitronectin (Homo sapiens) (P04004 399-478): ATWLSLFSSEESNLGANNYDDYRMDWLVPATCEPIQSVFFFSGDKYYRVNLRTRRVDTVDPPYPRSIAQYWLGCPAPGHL
The target in assay [5] is GAPDH present on the surface of N. glabratus cells (N. glabratus (endogenous in CBS138 / ATCC 2001)). Kind of assay: whole-cell binding assay with antibody blocking (SA-HRP/TMB); C. albicans hyphae in MaxiSorp wells (10^6 cells per well) or N. glabratus cells in tubes (3 × 10^7 per tube), pre-incubated with polyclonal anti-ScGAPDH antibody (1 µg/mL), then 150 nM biotin-labeled VTR or HPG, 1 h at 37 °C.

Assay [6] concerns the target GAPDH on the surface of C. albicans cells (C. albicans (endogenous in ATCC 10231)) (UniProt Q5ADM7). The description is as above.
Assay [7] addresses recombinant Candida albicans glyceraldehyde 3-phosphate dehydrogenase (C. albicans) (UniProt Q5ADM7). Kind of assay: BLI; Octet N1; GAPDH amine-coupled on an AR2G biosensor; VTR or HPG 31–500 nM in solution; Langmuir 1:1 model. On the technique in general: BLI is a label-free optical method that tracks binding on a fibre tip over time.
Assay [8] addresses cytoplasmic Nakaseomyces glabratus glyceraldehyde 3-phosphate dehydrogenase (N. glabratus (endogenous in CBS138 / ATCC 2001)). Described as above.
For assay [9], the target named is recombinant Candida albicans glyceraldehyde 3-phosphate dehydrogenase (C. albicans) (UniProt Q5ADM7). Kind of assay: SPR; Biacore 3000; GAPDH amine-coupled on a CM5 chip; VTR 10–500 nM, 30 µL/min, 25 °C, HBS buffer (10 mM HEPES, 150 mM NaCl, 0.005% P20, pH 7.4); Langmuir 1:1 model with baseline drift. (In general: SPR reads the build-up and loss of mass on a sensor chip optically.)

Assay [10] deals with cytoplasmic Nakaseomyces glabratus glyceraldehyde 3-phosphate dehydrogenase (N. glabratus (endogenous in CBS138 / ATCC 2001)). The assay is described as above.

The stoichiometry N is a count of units in the complex or per binding partner. Regarding “GAPDH present on the surface of N. glabratus cells (enzyme)”, in [1], the stoichiometry N was found to be 4.
By Kd is commonly meant the constant that tells how readily two partners part at equilibrium. As for “cytoplasmic Nakaseomyces glabratus glyceraldehyde 3-phosphate dehydrogenase (enzyme)”, the Kd in [2] lay in the range of 7 to 14 nM. In assay [3], this substance registered a stoichiometry N of 4.
As to enolase (from UniProt P30575), the Kd in [4] is 40 nM.
What is called koff is a measure of how fast the partners let go of each other. As a reminder, the kon is a measure of how fast the partners come together. Substance human plasminogen (natural protein) registered a percent decrease of binding to cells with anti-ScGAPDH antibody in assay [5] of 36%. In assay [6], the percent decrease of binding to cells with anti-ScGAPDH antibody was found to be 19%. In addition, in assay [7], the Kd is 150 nM, the koff is 0.00496 s⁻¹ and the kon came to 33000 M⁻¹ s⁻¹. In assay [8], this substance registered a Kd of 8.69 nM, a koff of 0.000649 s⁻¹ and a kon of 74600 M⁻¹ s⁻¹.
As for human vitronectin (natural protein), the Kd in [9] turned out to be 44.2 nM; in assay [10], 48 nM; in assay [7] it was 20.6 nM; in assay [8], 33.9 nM. Also, the koff in [9] stood at 0.000619 s⁻¹; in assay [10], 0.00183 s⁻¹; in assay [7], 0.000799 s⁻¹; in assay [8], 0.00172 s⁻¹. The kon in [9] came out at 14000 M⁻¹ s⁻¹; in assay [10] it was 38100 M⁻¹ s⁻¹; in [7], 38900 M⁻¹ s⁻¹; in assay [8], 50700 M⁻¹ s⁻¹. Besides, the percent decrease of binding to cells with anti-ScGAPDH antibody in assay [5] was found to be 12%; in [6], 16%.

(Values after publication PMC10815899.)
